Test results reported in PMC4351158 (Structure (London, England : 1993), 2015).
Numbering of substitutions follows the chain as printed. Where no end group is shown, it is not given here. fluorescein = fluorescein, a fluorescent label on the peptide N-terminus

Assays:
Assay in all cases: fluorescence polarisation
[1] = biological target: T1, DegS N197A (E. coli, UniProt P0AEE3 27-355, N197A)
T1 sequence (looked up): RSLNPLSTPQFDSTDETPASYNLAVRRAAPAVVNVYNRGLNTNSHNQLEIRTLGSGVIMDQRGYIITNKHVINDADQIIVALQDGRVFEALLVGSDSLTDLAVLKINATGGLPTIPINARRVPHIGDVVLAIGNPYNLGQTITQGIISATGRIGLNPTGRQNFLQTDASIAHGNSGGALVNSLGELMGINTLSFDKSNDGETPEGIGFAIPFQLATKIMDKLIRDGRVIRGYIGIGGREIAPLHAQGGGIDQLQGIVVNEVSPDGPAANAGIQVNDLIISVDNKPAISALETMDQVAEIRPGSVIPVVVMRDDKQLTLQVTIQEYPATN

[2] = biological target: T2, DegS F220A (E. coli, UniProt P0AEE3 27-355, F220A)
T2 sequence (looked up): T1 sequence (looked up) with A171N, F194A

[3] = biological target: T3, DegS Y162A (E. coli, UniProt P0AEE3 27-355, Y162A)
T3 sequence (looked up): T1 sequence (looked up) with Y136A, A171N

[4] = biological target: T4, DegS H198P (E. coli, UniProt P0AEE3 27-355, H198P)
T4 sequence (looked up): T1 sequence (looked up) with A171N, H172P

[5] = biological target: T5, DegS D221A (E. coli, UniProt P0AEE3 27-355, D221A)
T5 sequence (looked up): T1 sequence (looked up) with A171N, D195A

[6] = biological target: T6, DegS T167V/H198P (E. coli, UniProt P0AEE3 27-355, T167V | H198P)
T6 sequence (looked up): T1 sequence (looked up) with T141V, A171N, H172P

- Kd [1]: 1400 ± 100 nM
- Kd [2]: 2100 ± 100 nM
- Kd [3]: 1900 ± 400 nM
- Kd [4]: 2500 ± 300 nM
- Kd [5]: 3.2 ± 0.2 µM
- Kd [6]: 1900 ± 700 nM
Binder: fluorescein-DNRDGNVYYF [fluorescent OMP peptide fluorescein-DNRDGNVYYF]
